Data reported in US20200087373A1 (UNIVERSITY OF COPENHAGEN, published 2020).
Ends that are not written are not given here. * marks the point of attachment. C16 diacid = O=C(O)CCCCCCCCCCCCCCC(=O)*

How the values were obtained:
human GIP receptor [1] = target: T1, human GIP receptor (human, UniProt P48546 22-466); experiment: cell-based or functional assay
T1 sequence (looked up): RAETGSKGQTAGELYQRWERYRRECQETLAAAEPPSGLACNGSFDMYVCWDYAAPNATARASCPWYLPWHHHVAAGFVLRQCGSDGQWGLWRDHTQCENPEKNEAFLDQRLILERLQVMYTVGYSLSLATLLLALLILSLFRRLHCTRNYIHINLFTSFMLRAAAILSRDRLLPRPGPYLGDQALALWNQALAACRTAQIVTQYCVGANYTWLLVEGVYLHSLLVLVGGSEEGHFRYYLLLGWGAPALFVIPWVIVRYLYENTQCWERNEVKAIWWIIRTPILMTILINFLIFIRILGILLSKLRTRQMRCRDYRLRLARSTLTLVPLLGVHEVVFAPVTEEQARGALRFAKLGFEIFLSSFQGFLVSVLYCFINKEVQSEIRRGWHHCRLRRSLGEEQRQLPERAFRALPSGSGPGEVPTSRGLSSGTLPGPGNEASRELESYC

human GIP receptor [2] = target: T1, human GIP receptor; experiment: 125I-hGIP(1-42) competition binding, COS-7 cells expressing human GIPR, without HSA;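 note: nonspecific binding defined as radioligand bound to cells lacking the transfected receptor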
Description: (§1) After incubation, the cells were washed twice in ice-cold binding buffer (+/−2% HSA) and lysed using 200 mM NaOH with 1% SDS for 30 min. Nonspecific binding was determined as the binding of radioactive ligand to untransfected cells.

human GIP receptor [3] = target: T1, human GIP receptor; experiment: 125I-hGIP(1-42) competition binding, COS-7 cells expressing human GIPR, with 2% HSA;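 note: nonspecific signal taken as radioligand bound to untransfected cells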
Description: as §1

human GIP receptor [4] = target: T1, human GIP receptor; experiment: ratio of Ki with 2% HSA to Ki without HSA, 125I-hGIP competition binding on hGIPR COS-7 cells;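 note: nonspecific binding was defined as radioligand signal on cells lacking the receptor transfection, with cell lysates measured after washes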
Description: as §1

Binder | cAMP accumulation Fold (fold change from GIP(5-30)NH2) (human GIP receptor [1]) [fold] | cAMP accumulation IC50 (human GIP receptor [1]) [nM] | cAMP accumulation logIC50 (human GIP receptor [1]) | Ki (human GIP receptor [2]) [nM] | Ki (human GIP receptor [3]) [nM] | Fold (Ki + HSA / Ki - HSA) (human GIP receptor [4]) [fold]
TFISDYSK(C16 diacid)AMDKIHQQDFVNWLLAQK-NH2 (N-terminus assumed; SMILES CC[C@H](C)[C@H](NC(=O)[C@H](CCCCN)NC(=O)[C@H](CC(=O)O)NC(=O)[C@H](CCSC)NC(=O)[C@H](C)NC(=O)[C@H](CCCCNC(=O)CCCCCCCCCCCCCCC(=O)O)NC(=O)[C@H](CO)NC(=O)[C@H](Cc1ccc(O)cc1)NC(=O)[C@H](CC(=O)O)NC(=O)[C@H](CO)NC(=O)[C@@H](NC(=O)[C@H](Cc1ccccc1)NC(=O)[C@@H](N)[C@@H](C)O)[C@@H](C)CC)C(=O)N[C@@H](Cc1c[nH]cn1)C(=O)N[C@@H](CCC(N)=O)C(=O)N[C@@H](CCC(N)=O)C(=O)N[C@@H](CC(=O)O)C(=O)N[C@@H](Cc1ccccc1)C(=O)N[C@H](C(=O)N[C@@H](CC(N)=O)C(=O)N[C@@H](Cc1c[nH]c2ccccc12)C(=O)N[C@@H](CC(C)C)C(=O)N[C@@H](CC(C)C)C(=O)N[C@@H](C)C(=O)N[C@@H](CCC(N)=O)C(=O)N[C@@H](CCCCN)C(N)=O)C(C)C) [AT174 [hGIP(5-30)NH2[I12K]-C16diacid/12]] | 0.9 | 23.4 | -7.63 log(M) | 56.1 | 342 | 6.1
TFISDYSIAMDKK(C16 diacid)HQQDFVNWLLAQK-NH2 (N-terminus assumed; SMILES CC[C@H](C)[C@H](NC(=O)[C@H](CO)NC(=O)[C@H](Cc1ccc(O)cc1)NC(=O)[C@H](CC(=O)O)NC(=O)[C@H](CO)NC(=O)[C@@H](NC(=O)[C@H](Cc1ccccc1)NC(=O)[C@@H](N)[C@@H](C)O)[C@@H](C)CC)C(=O)N[C@@H](C)C(=O)N[C@@H](CCSC)C(=O)N[C@@H](CC(=O)O)C(=O)N[C@@H](CCCCN)C(=O)N[C@@H](CCCCNC(=O)CCCCCCCCCCCCCCC(=O)O)C(=O)N[C@@H](Cc1c[nH]cn1)C(=O)N[C@@H](CCC(N)=O)C(=O)N[C@@H](CCC(N)=O)C(=O)N[C@@H](CC(=O)O)C(=O)N[C@@H](Cc1ccccc1)C(=O)N[C@H](C(=O)N[C@@H](CC(N)=O)C(=O)N[C@@H](Cc1c[nH]c2ccccc12)C(=O)N[C@@H](CC(C)C)C(=O)N[C@@H](CC(C)C)C(=O)N[C@@H](C)C(=O)N[C@@H](CCC(N)=O)C(=O)N[C@@H](CCCCN)C(N)=O)C(C)C) [AT178 [hGIP(5-30)NH2[I17K]-C16diacid/17]] | 1 | 27.5 | -7.56 log(M) | 54.3 | 243 | 4.5
TFISDYSIAMDKIHK(C16 diacid)QDFVNWLLAQK-NH2 (N-terminus assumed; SMILES CC[C@H](C)[C@H](NC(=O)[C@H](CO)NC(=O)[C@H](Cc1ccc(O)cc1)NC(=O)[C@H](CC(=O)O)NC(=O)[C@H](CO)NC(=O)[C@@H](NC(=O)[C@H](Cc1ccccc1)NC(=O)[C@@H](N)[C@@H](C)O)[C@@H](C)CC)C(=O)N[C@@H](C)C(=O)N[C@@H](CCSC)C(=O)N[C@@H](CC(=O)O)C(=O)N[C@@H](CCCCN)C(=O)N[C@H](C(=O)N[C@@H](Cc1c[nH]cn1)C(=O)N[C@@H](CCCCNC(=O)CCCCCCCCCCCCCCC(=O)O)C(=O)N[C@@H](CCC(N)=O)C(=O)N[C@@H](CC(=O)O)C(=O)N[C@@H](Cc1ccccc1)C(=O)N[C@H](C(=O)N[C@@H](CC(N)=O)C(=O)N[C@@H](Cc1c[nH]c2ccccc12)C(=O)N[C@@H](CC(C)C)C(=O)N[C@@H](CC(C)C)C(=O)N[C@@H](C)C(=O)N[C@@H](CCC(N)=O)C(=O)N[C@@H](CCCCN)C(N)=O)C(C)C)[C@@H](C)CC) [AT179 [hGIP(5-30)NH2[Q19K]-C16diacid/19]] | 2.1 | 57.5 | -7.24 log(M) | 378 | 2380 | 6.3
TFISDYSIAMK(C16 diacid)KIHQQDFVNWLLAQK-NH2 (N-terminus assumed; SMILES CC[C@H](C)[C@H](NC(=O)[C@H](CO)NC(=O)[C@H](Cc1ccc(O)cc1)NC(=O)[C@H](CC(=O)O)NC(=O)[C@H](CO)NC(=O)[C@@H](NC(=O)[C@H](Cc1ccccc1)NC(=O)[C@@H](N)[C@@H](C)O)[C@@H](C)CC)C(=O)N[C@@H](C)C(=O)N[C@@H](CCSC)C(=O)N[C@@H](CCCCNC(=O)CCCCCCCCCCCCCCC(=O)O)C(=O)N[C@@H](CCCCN)C(=O)N[C@H](C(=O)N[C@@H](Cc1c[nH]cn1)C(=O)N[C@@H](CCC(N)=O)C(=O)N[C@@H](CCC(N)=O)C(=O)N[C@@H](CC(=O)O)C(=O)N[C@@H](Cc1ccccc1)C(=O)N[C@H](C(=O)N[C@@H](CC(N)=O)C(=O)N[C@@H](Cc1c[nH]c2ccccc12)C(=O)N[C@@H](CC(C)C)C(=O)N[C@@H](CC(C)C)C(=O)N[C@@H](C)C(=O)N[C@@H](CCC(N)=O)C(=O)N[C@@H](CCCCN)C(N)=O)C(C)C)[C@@H](C)CC) [AT177 [hGIP(5-30)NH2[D15K]-C16diacid/15]] | 1.3 | 37.2 | -7.43 log(M) | 117 | 444 | 3.8
TFISDYSIAK(C16 diacid)DKIHQQDFVNWLLAQK-NH2 (N-terminus assumed; SMILES CC[C@H](C)[C@H](NC(=O)[C@H](CO)NC(=O)[C@H](Cc1ccc(O)cc1)NC(=O)[C@H](CC(=O)O)NC(=O)[C@H](CO)NC(=O)[C@@H](NC(=O)[C@H](Cc1ccccc1)NC(=O)[C@@H](N)[C@@H](C)O)[C@@H](C)CC)C(=O)N[C@@H](C)C(=O)N[C@@H](CCCCNC(=O)CCCCCCCCCCCCCCC(=O)O)C(=O)N[C@@H](CC(=O)O)C(=O)N[C@@H](CCCCN)C(=O)N[C@H](C(=O)N[C@@H](Cc1c[nH]cn1)C(=O)N[C@@H](CCC(N)=O)C(=O)N[C@@H](CCC(N)=O)C(=O)N[C@@H](CC(=O)O)C(=O)N[C@@H](Cc1ccccc1)C(=O)N[C@H](C(=O)N[C@@H](CC(N)=O)C(=O)N[C@@H](Cc1c[nH]c2ccccc12)C(=O)N[C@@H](CC(C)C)C(=O)N[C@@H](CC(C)C)C(=O)N[C@@H](C)C(=O)N[C@@H](CCC(N)=O)C(=O)N[C@@H](CCCCN)C(N)=O)C(C)C)[C@@H](C)CC) [AT176 [hGIP(5-30)NH2[M14K]-C16diacid/14]] | 3.8 | 105 | -6.98 log(M) | 82.6 | 420 | 5.1
TFISDYSIK(C16 diacid)MDKIHQQDFVNWLLAQK-NH2 (N-terminus assumed; SMILES CC[C@H](C)[C@H](NC(=O)[C@H](CCCCN)NC(=O)[C@H](CC(=O)O)NC(=O)[C@H](CCSC)NC(=O)[C@H](CCCCNC(=O)CCCCCCCCCCCCCCC(=O)O)NC(=O)[C@@H](NC(=O)[C@H](CO)NC(=O)[C@H](Cc1ccc(O)cc1)NC(=O)[C@H](CC(=O)O)NC(=O)[C@H](CO)NC(=O)[C@@H](NC(=O)[C@H](Cc1ccccc1)NC(=O)[C@@H](N)[C@@H](C)O)[C@@H](C)CC)[C@@H](C)CC)C(=O)N[C@@H](Cc1c[nH]cn1)C(=O)N[C@@H](CCC(N)=O)C(=O)N[C@@H](CCC(N)=O)C(=O)N[C@@H](CC(=O)O)C(=O)N[C@@H](Cc1ccccc1)C(=O)N[C@H](C(=O)N[C@@H](CC(N)=O)C(=O)N[C@@H](Cc1c[nH]c2ccccc12)C(=O)N[C@@H](CC(C)C)C(=O)N[C@@H](CC(C)C)C(=O)N[C@@H](C)C(=O)N[C@@H](CCC(N)=O)C(=O)N[C@@H](CCCCN)C(N)=O)C(C)C) [AT175 [hGIP(5-30)NH2[A13K]-C16diacid/13]] | 0.5 | 14.1 | -7.85 log(M) | 53 | 498 | 9.4
